Data set [1] has as its target T1, Nuclease K.
T1 chain: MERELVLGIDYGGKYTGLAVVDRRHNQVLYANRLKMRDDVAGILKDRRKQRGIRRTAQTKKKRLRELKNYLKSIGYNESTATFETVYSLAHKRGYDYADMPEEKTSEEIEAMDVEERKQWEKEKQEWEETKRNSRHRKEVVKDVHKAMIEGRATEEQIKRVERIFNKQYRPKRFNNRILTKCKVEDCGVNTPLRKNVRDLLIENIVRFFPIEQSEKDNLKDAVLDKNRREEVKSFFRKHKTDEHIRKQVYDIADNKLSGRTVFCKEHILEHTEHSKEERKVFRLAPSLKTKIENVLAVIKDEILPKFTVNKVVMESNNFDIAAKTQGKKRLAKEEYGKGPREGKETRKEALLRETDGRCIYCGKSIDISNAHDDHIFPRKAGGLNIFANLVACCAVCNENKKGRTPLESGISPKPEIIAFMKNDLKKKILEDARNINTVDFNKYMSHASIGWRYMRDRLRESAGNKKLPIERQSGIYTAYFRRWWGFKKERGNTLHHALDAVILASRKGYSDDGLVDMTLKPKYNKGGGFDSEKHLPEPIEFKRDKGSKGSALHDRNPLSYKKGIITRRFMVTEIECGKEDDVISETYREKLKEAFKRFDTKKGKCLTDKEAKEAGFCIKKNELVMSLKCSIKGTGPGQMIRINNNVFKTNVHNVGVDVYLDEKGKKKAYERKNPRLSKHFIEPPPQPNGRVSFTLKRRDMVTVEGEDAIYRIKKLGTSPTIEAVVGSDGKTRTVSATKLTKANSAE
As to the kind of experiment: cell_activity; PAM NGG (AGG); HEK293T; row labelled Reference SEQ ID NO: 1, text says Nuclease K. The following applies: tags: N-terminal SV40 NLS, C-terminal nucleoplasmin NLS.

Data set [2] addresses T1, Nuclease K. As to the kind of experiment: cell_activity; PAM NGG (GGG); HEK293T. The following applies: tags: N-terminal SV40 NLS, C-terminal nucleoplasmin NLS.

B1: Nuclease K AAVS1-T3 guide ; AAVS1-T3 target (ssRNA ; dsDNA)
RNA: UUGUGAGAAUGGUGCGUCCUGUUACAGUUAAGGCUCUGAAAAGAGCCUUAAUUGUAAAACGCCUAUACAGUGAAGGGAUAUACGCUUGGGUUUGUCCAGCCUGAGCCUCUAUGCCAGAAAUGGCGCCUUCAUCGUGGGUUAGGACAUUUAAAUUUAAAAACUAUUCAGCACUGUUUGCUCUUGUCAGCUUGGUGGCAGA
DNA 1: TTGTGAGAATGGTGCGTCCT
DNA 2: AGGACGCACCATTCTCACAA
In data set [1], B1 registered an activity of 0.037 indel ratio.

B2: Nuclease K EMX1-T7 guide ; EMX1-T7 target (ssRNA ; dsDNA)
RNA: CUUUAGCAAGGGACUAUUCAGUUACAGUUAAGGCUCUGAAAAGAGCCUUAAUUGUAAAACGCCUAUACAGUGAAGGGAUAUACGCUUGGGUUUGUCCAGCCUGAGCCUCUAUGCCAGAAAUGGCGCCUUCAUCGUGGGUUAGGACAUUUAAAUUUAAAAACUAUUCAGCACUGUUUGCUCUUGUCAGCUUGGUGGCAGA
DNA 1: CTTTAGCAAGGGACTATTCA
DNA 2: TGAATAGTCCCTTGCTAAAG
Turning to B2, the activity in data set [2] was 0.011 indel ratio.

Values taken from patent US20260275311, “CRISPR NUCLEASE POLYPEPTIDES AND GENE EDITING SYSTEMS COMPRISING SUCH” (ARBOR BIOTECHNOLOGIES, INC., published 2026).
